Biological target: QatB (Escherichia coli NCTC9009)
Assay: SEC-MALS

| Substance | stoichiometry N |
| --- | --- |
| QatC (enzyme) | 1 |
| QatD (enzyme) | 1 |
